Test results reported in paper PMC8715211.

Molecular target: HIV-1 matrix MA1-131 (HIV-1, UniProt C1JB69 2-132)
Test: ITC

B1: human tRNALys3, in vitro transcribed (structured_RNA)
RNA: GCCCGGAUAGCUCAGUCGGUAGAGCAUCAGACUUUUAAUCUGAGGGUCCAGGGUUCAAGUCCCUGUUCGGGCGCCA
modifications: unmodified transcript
- Kd: 270 ± 20 nM
